Data from US20240180982A1 (published 2024).

T1: Recombinant Human CD46 Protein (His Tag) (Sino biological, 12239-H08H) (human, UniProt P15529 35-328)
T1 chain: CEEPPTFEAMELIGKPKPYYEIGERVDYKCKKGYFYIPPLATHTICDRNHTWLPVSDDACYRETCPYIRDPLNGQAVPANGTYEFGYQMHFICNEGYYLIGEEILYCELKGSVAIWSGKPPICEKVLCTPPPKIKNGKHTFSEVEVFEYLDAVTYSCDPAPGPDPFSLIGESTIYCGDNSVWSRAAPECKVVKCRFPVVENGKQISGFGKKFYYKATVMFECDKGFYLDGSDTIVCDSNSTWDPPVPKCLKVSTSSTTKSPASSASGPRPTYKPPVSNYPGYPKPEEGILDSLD

T2: Recombinant Human Desmoglein-2 Fc Chimera Protein (R&D Systems, 947-DM-100) (human, UniProt Q14126 50-609)
T2 chain: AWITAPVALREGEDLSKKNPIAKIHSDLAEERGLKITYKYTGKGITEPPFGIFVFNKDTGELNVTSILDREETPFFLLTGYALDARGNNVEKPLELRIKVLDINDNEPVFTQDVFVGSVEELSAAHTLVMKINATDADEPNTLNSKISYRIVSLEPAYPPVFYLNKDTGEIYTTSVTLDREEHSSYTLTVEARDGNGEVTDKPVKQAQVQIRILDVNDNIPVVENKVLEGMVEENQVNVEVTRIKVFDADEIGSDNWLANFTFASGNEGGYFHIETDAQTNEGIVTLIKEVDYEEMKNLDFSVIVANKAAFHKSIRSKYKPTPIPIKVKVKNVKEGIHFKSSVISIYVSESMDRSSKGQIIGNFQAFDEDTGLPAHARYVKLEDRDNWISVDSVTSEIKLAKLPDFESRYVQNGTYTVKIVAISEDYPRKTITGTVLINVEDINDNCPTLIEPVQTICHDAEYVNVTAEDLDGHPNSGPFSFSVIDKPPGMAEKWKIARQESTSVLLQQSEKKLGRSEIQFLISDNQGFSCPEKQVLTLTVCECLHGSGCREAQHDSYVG


Experiments:
[1] = biological target: Recombinant Human Desmoglein-2 Fc Chimera Protein (R&D Systems, 947-DM-100) (human) (UniProt Q14126); experiment: SPR
[2] = biological target: Recombinant Human CXADR Fc Chimera Protein (CAR; R&D Systems, 3336-CX-050) (human) (UniProt P78310); experiment: SPR (BIAcore 3000), receptor amine coupled to CM5 chip, knob as analyte
[3] = biological target: Recombinant Human Desmoglein-2 Fc Chimera Protein (R&D Systems, 947-DM-100) (human) (UniProt Q14126); experiment: SPR (BIAcore 3000), receptor amine coupled to CM5 chip, knob as analyte, equilibrium fit
[4] = biological target: Recombinant Human CD46 Protein (His Tag) (Sino biological, 12239-H08H) (human) (UniProt P15529); experiment: as above
[5] = biological target: CAR on CHO-CAR cells (human) (UniProt P78310)
[6] = biological target: T1, Recombinant Human CD46 Protein (His …); experiment: SPR
[7] = biological target: T2, Recombinant Human Desmoglein-2 Fc …; experiment: SPR

Chain of Recombinant Human CXADR Fc Chimera Protein (CAR; R&D Systems, 3336-CX-050) (human) (P78310 20-237, change not shown): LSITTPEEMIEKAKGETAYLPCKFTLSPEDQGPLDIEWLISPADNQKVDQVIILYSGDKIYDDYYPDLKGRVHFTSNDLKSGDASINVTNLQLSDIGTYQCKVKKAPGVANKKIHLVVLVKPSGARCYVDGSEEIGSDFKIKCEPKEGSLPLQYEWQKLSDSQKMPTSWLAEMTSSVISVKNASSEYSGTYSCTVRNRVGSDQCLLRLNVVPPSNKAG
Chain of CAR on CHO-CAR cells (human) (P78310 20-365): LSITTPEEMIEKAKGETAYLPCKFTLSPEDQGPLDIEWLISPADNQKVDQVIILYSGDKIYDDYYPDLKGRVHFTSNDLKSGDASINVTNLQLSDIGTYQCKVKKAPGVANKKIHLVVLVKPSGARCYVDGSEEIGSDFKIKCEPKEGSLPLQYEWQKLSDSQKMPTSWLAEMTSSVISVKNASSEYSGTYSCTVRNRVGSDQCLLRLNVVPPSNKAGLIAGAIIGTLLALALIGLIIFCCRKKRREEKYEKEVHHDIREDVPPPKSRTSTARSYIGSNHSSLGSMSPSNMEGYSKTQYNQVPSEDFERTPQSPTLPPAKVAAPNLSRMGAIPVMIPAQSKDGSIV

Molecule	Kd [1] [µM]	Kd [2] [µM]	Kd [3] [µM]	Kd [4] [µM]	fold lower affinity than HAdV-C5 (by IC50 values) [5] [fold]	Kd [6] [µM]	Kd [7] [µM]
Recombinant HAdV-C5 fiber knob protein (from UniProt P11818 387-581)	125	0.00076					
Recombinant HAdV-D10 fiber knob protein		0.44	125	20	16.5		
HAdV-B3k (other) TFDSSNSIALKNNTLWTGPKPEANCIIEYGKQNPDSKLTLILVKNGGIVNGYVTLMGASDYVNTLFKNKNVSINVELYFDATGHILPDSSSLKTDLELKYKQTADFSARGFMPSTTAYPFVLPNAGTHNENYIFGQCYYKASDGALFPLEVTVMLNKRLPDSRTSYVMTFLWSLNAGLAPETTQATLITSPFTFSYIREDD						0.16	66.9
